Laboratory results published in PMC7954794, “Protein context shapes the specificity of SH3 domain-mediated interactions in vivo” (Nature Communications, 2021).

B1: YBL007C (protein, UniProt P32790 1-1244, looked up)
Actin cytoskeleton-regulatory …: MTVFLGIYRAVYAYEPQTPEELAIQEDDLLYLLQKSDIDDWWTVKKRVIGSDSEEPVGLVPSTYIEEAPVLKKVRAIYDYEQVQNADEELTFHENDVFDVFDDKDADWLLVKSTVSNEFGFIPGNYVEPENGSTSKQEQAPAAAEAPAATPAAAPASAAVLPTNFLPPPQHNDRARMMQSKEDQAPDEDEEGPPPAMPARPTATTETTDATAAAVRSRTRLSYSDNDNDDEEDDYYYNSNSNNVGNHEYNTEYHSWNVTEIEGRKKKKAKLSIGNNKINFIPQKGTPHEWSIDKLVSYDNEKKHMFLEFVDPYRSLELHTGNTTTCEEIMNIIGEYKGASRDPGLREVEMASKSKKRGIVQYDFMAESQDELTIKSGDKVYILDDKKSKDWWMCQLVDSGKSGLVPAQFIEPVRDKKHTESTASGIIKSIKKNFTKSPSRSRSRSRSKSNANASWKDDELQNDVVGSAAGKRSRKSSLSSHKKNSSATKDFPNPKKSRLWVDRSGTFKVDAEFIGCAKGKIHLHKANGVKIAVAADKLSNEDLAYVEKITGFSLEKFKANDGSSSRGTDSRDSERERRRRLKEQEEKERDRRLKERELYELKKARELLDEERSRLQEKELPPIKPPRPTSTTSVPNTTSVPPAESSNNNNSSNKYDWFEFFLNCGVDVSNCQRYTINFDREQLTEDMMPDINNSMLRTLGLREGDIVRVMKHLDKKFGRENIASIPTNATGNMFSQPDGSLNVATSPETSLPQQLLPQTTSPAQTAPSTSAETDDAWTVKPASKSESNLLSKKSEFTGSMQDLLDLQPLEPKKAAASTPEPNLKDLEPVKTGGTTVPAAPVSSAPVSSAPAPLDPFKTGGNNILPLSTGFVMMPMITGGDMLPMQRTGGFVVPQTTFGMQSQVTGGILPVQKTGNGLIPISNTGGAMMPQTTFGAAATVLPLQKTGGGLIPIATTGGAQFPQTSFNVQGQQQLPTGSILPVQKTANGLISANTGVSMPTVQRTGGTMIPQTSFGVSQQLTGGAMMTQPQNTGSAMMPQTSFNAVPQITGGAMMPQTSFNALPQVTGGAMMPLQRTGGALNTFNTGGAMIPQTSFSSQAQNTGGFRPQSQFGLTLQKTGGIAPLNQNQFTGGAMNTLSTGGVLQQQQPQTMNTFNTGGVMQELQMMTTFNTGGAMQQPQMMNTFNTDGIMQQPQMMNTFNTGGAMQQPQQQALQNQPTGFGFGNGPQQSRQANIFNATASNPFGF
B2: YGR229C (protein, UniProt P32566 1-505, looked up)
Cell wall assembly regulator …: MDLFKRKVKEWVYSLSTDDHYAEYNPDETPTFNMGKRLNSNNGQVNPSQMHLNSVDEEMSMGFQNGVPSNEDINIDEFTSTESNDGVSETLLAWRHIDFWTSEHNPDLNATLSDPCTQNDITHAEEDLEVSFPNPVKASFKIHDGQEDLESMTGTSGLFYGFQLMTLDQVVAMTQAWRNVAKNLNKRSQQGLSHVTSTGSSSSMERLNGNKFKLPNIPDQKSIPPNAVQPVYAHPAWIPLITDNAGNHIGVDLAPGPNGKYAQIITFGRDFDTKFVIAENWGEFLLSFANDLEAGNWYLVDDNDDYFSGDGELVFRDKKSNGPIQDYFEVLKRRTWIKYQENLRSQQQKSQPDTSLQEQKYVPASQKKVAAEQPSTLNAESIKGEDSGSADVQSVQDHESVKIVKTEPSEAETTTVNTESLGQAEHEIKADNVDIKQESERKEDEKQPKVEEKEHVENEHVTESAKKDDDVNKQTEEMNKKEENEIRSDDAKVEEAREEFENIAL
B3: YIR006C (protein, UniProt P32521 1-1480, looked up)
Actin cytoskeleton-regulatory …: MYNPYQQQGMGYQQQQQQQQQQPNGFYPQQQQGQSSNQPQGQPQPQQQMAFNQPQATGIGGMPQSFGNSFSSMPQQPQTGYNNNGNNGSVYGNGNFGQQPQQQQQQAKPQHTGYVPNSSMPMMNTTGTMPPPNPAQQPQLQSIQPQGTGYYQAANTANVHSVQPLQSQGTGYYVSTPNLISSNQTQQPLQAQGTGYYQSQPQQVPPPQQAQSLQPLKPQQTGFYLQPQNQAPLEPLKPTATGFVNSFANNGLNNDIKIPAIRLSFITAQDQAKFETLFRSIVTNGSNTVSGANCRKILMRSGLPPSQLARIWTLCDTSKAGELLFPEFALAMHLINDVLQGDTIPYELDSKTKNEVSSFIDAINLSIANQDSSANDAPKTPFDEFITAGVQNLQPQPTGYMPQTSFGIPLQSQITGGGVASALNPQSTGFMAPTTFNMSMNTGTPGLNPQITGGAPASMQPNITGNALQPQTTGMMPQTTGMMPQTTGMMPQTSFGVNLGPQLTGGALQSQYTGGYGSVMPQQSGPASMPNLSFNQQGLQSQLTGLQPQPTGFLPPSNFSATMPLTAQKTGFGNNEIYTKSNFNNNLIDNSSQDKISTEEKSLFYKIFETFDTQNKGLLDSPTAVEIFRKSGLNRADLEQIWNLCDINNTGQLNKQEFALGMHLVYGKLNGKPIPNVLPSSLIPSSTKLLDNLKNQLKTEPTTTKEKPSFGKIDALSYKNNDDDVLPNYRNRRKVYSAKNEEQSSFSSPSAKSVNHSSSTLQTDDISVDKTVEKKTAKPKYAGFSREINLKNIASLENEIKNISNPENCYDSSIPSDLTSRFDAIIAKLPNLFNEISTIDNEITNAKIQLYRKKNPSSIIGSGPNGEITENDRKKAKSRALLRARMSALTGKSTESEDSLSMEDEQQSAEIKRIQQENGKNQEIIKDIRSSISDISASLKSTMTGSNMISNQEFERWEFGIGLEDGVREFLDDLKSNSNKSVTESSPFVPSSTPTPVDDRSSSPSYSQFKTAEERAAYLKEQAKKRMKEKLAKFDKNRRNVTQSSRSISSENSREQPQQIAGSSNLVEPRATPFQEEKYVEVAQPTQPVQSTQPVQPTQPVQPTQPVQPTQPVQPTQPVQPTQPVQNVYNAKQESDDEDEDDEEKRLQEELKRLKLKKKADKEKRLAALRKQIEDAQNESDEEETNGKDNFGGHVNVPQAAPVAPSAAFSQNSTNAPRSVHAAVTPAAGKNSTGLPSTTMGHNPYFKDASASSTSTFDARAAEMQRRIQRGLDEDEDDGWSDEDESNNRVAVDNKVEEAKIGHPDHARAPPVTAAPLPSVTPVPPAVPVPQANTSNEKSSPIPIAPIPPSVTQEPPVPLAPPLPAVDGFQEPPIPSAPAIATAVQKSGSSTPALAGGVLPPPPPLPTQQASTSEPIIAHVDNYNGAEKGTGAYGSDSDDDVLSIPESVGTDEEEEGAQPVSTAGIPSIPPAGIPPPPPLP
B4: YLR337C (protein, UniProt P37370 1-817, looked up)
Verprolin: MAGAPAPPPPPPPPALGGSAPKPAKSVMQGRDALLGDIRKGMKLKKAETNDRSAPIVGGGVVSSASGSSGTVSSKGPSMSAPPIPGMGAPQLGDILAGGIPKLKHINNNASTKPSPSASAPPIPGAVPSVAAPPIPNAPLSPAPAVPSIPSSSAPPIPDIPSSAAPPIPIVPSSPAPPLPLSGASAPKVPQNRPHMPSVRPAHRSHQRKSSNISLPSVSAPPLPSASLPTHVSNPPQAPPPPPTPTIGLDSKNIKPTDNAVSPPSSEVPAGGLPFLAEINARRSERGAVEGVSSTKIQTENHKSPSQPPLPSSAPPIPTSHAPPLPPTAPPPPSLPNVTSAPKKATSAPAPPPPPLPAAMSSASTNSVKATPVPPTLAPPLPNTTSVPPNKASSMPAPPPPPPPPPGAFSTSSALSASSIPLAPLPPPPPPSVATSVPSAPPPPPTLTTNKPSASSKQSKISSSSSSSAVTPGGPLPFLAEIQKKRDDRFVVGGDTGYTTQDKQEDVIGSSKDDNVRPSPISPSINPPKQSSQNGMSFLDEIESKLHKQTSSNAFNAPPPHTDAMAPPLPPSAPPPPITSLPTPTASGDDHTNDKSETVLGMKKAKAPALPGHVPPPPVPPVLSDDSKNNVPAASLLHDVLPSSNLEKPPSPPVAAAPPLPTFSAPSLPQQSVSTSIPSPPPVAPTLSVRTETESISKNPTKSPPPPPSPSTMDTGTSNSPSKNLKQRLFSTGGSTLQHKHNTHTNQPDVDVGRYTIGGSNSIVGAKSGNERIVIDDSRFKWTNVSQMPKPRPFQNKTKLYPSGKGSSVPLDLTLFT

Columns and labels:
Format in all cases: cell-based, Saccharomyces cerevisiae
BBC1 = experiment: DHFR-PCA on solid medium, bait BBC1 (Fig. 1B); details: bait BBC1, label = prey; for medrep (log2 median colony size normalized to plate background, PCA score): 2-4 replicates; for Ratio (SH3-deleted/WT medrep): only significant differences showed, PPIs completely lost have a ratio of 0.1 and the gained PPIs 2.5
Source text: (§1) Supplement 41467_2021_21873_MOESM8_ESM.xlsx, sheet "Fig1B" | column: medsize; medrep; Ratio; Score

[1] = test system: 575 putative partners (preys) of 22 WT SH3-containing proteins; experiment: DHFR-PCA on solid medium, WT and SH3-deleted baits (Fig. 1B); set-up: key to Score: 0: SH3-independent; 1: SH3-dependent PPIs; 2: SH3-inhibited PPIs; details: for medrep (log2 median colony size normalized to plate background, PCA score): label = prey; for Ratio (SH3-deleted/WT medrep): only significant differences shown, PPIs completely lost have a ratio of 0.1, gained PPIs 2.5
In short: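 Interactions scored by DHFR protein-fragment complementation on solid medium using robotic pinning; preys (DHFR F[3] fusions) arrayed in duplicate with control borders. Baits carried C-terminal DHFR F[1,2]-FLAG tags, tested as wild type and as SH3-deleted versions carrying a flexible Gly/Ser stuffer.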

Abp1 PPIs = experiment: DHFR-PCA of Abp1 SH3-swapped baits (Fig. 2B-D, S2C, S2F); details: Fig2B; bait ABP1, label = prey; Replicates 4
In short: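 Interactions were scored by DHFR protein-fragment complementation. DHFR F[1,2]-tagged Abp1 strains, whose SH3 was swapped for yeast or human ortholog domains, were crossed on YPD at 30 °C for 48 h with a 1536-format array of 575 prey-DHFR F[3] strains and 40 negatives, giving four replicates per pair. PCA selection lasted 4 days after double diploid selection.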

ABP1 = experiment: DHFR-PCA on solid medium, bait ABP1 (Fig. 1B); details: bait ABP1, label = prey; 2-4 replicates
Source text: as §1

BEM1-1 = experiment: DHFR-PCA on solid medium, bait BEM1-1 (Fig. 1B); details: bait BEM1-1, label = prey
Source text: as §1

BEM1-2 = experiment: DHFR-PCA on solid medium, bait BEM1-2 (Fig. 1B); details: bait BEM1-2, label = prey; 2-8 replicates
Source text: as §1

[2] = bait SLA1-3, DHFR-PCA, Replicates 4 (2 for YCR009C, YDR388W, YIL033C)
[3] = bait SLA1-2, DHFR-PCA, Replicates 4 (2 for YCR009C, YDR388W)

| Molecule | medrep (log2 median colony size normalized to plate background, PCA score) (BBC1) | Ratio (SH3-deleted/WT medrep) (BBC1) | medrep (log2 median colony size normalized to plate background, PCA score) [1, 2] | Score ([1]; bait SLA1-3, label = prey) | medrep (log2 median colony size normalized to plate background) (Abp1 PPIs) | medrep (log2 median colony size normalized to plate background, PCA score) (ABP1) | medrep (log2 median colony size normalized to plate background, PCA score) [1, 3] | Score ([1]; bait SLA1-2, label = prey) | Ratio (SH3-deleted/WT medrep) ([1]; bait SLA1-2, label = prey) | medrep (log2 median colony size normalized to plate background, PCA score) (BEM1-1; 2-8 replicates) | Ratio (SH3-deleted/WT medrep) (BEM1-1; only significant differences showed, PPIs completely lost have a ratio of 0.1 and the gained PPIs 2.5) | medrep (log2 median colony size normalized to plate background, PCA score) (BEM1-2) |
| --- | --- | --- | --- | --- | --- | --- | --- | --- | --- | --- | --- | --- |
| B1 | 2.803 | 0.1 | 4.843 | 0 | 4.393 | 4.393 |  |  |  |  |  |  |
| B2 | 2.755 | 0.1 | 3.075 | 0 |  | 3.977 | 3.075 | 1 | 0.1 | 1.341 | 0.1 | 1.341 |
| B3 | 1.896 | 0.4416 | 4.7899 | 0 |  | 5.062 |  |  |  |  |  |  |
| B4 | 2.429 | 0.57 | 4.892 | 0 |  | 4.481 | 2.095 | 1 | 0.4282 |  |  |  |
